The record followed here is publication PMC10315710, “Diacylglycerol kinase ζ interacts with sphingomyelin synthase 1 and sphingomyelin synthase‐related protein via different regions” (FEBS Open Bio, 2023).

This assay deals with T1, Twin‐Strep (TS)‐tagged DGKζ (TS‐DGKζ) (human, UniProt Q13574 1-928).
T1 construct: full-length (FL) DGKζ (DGKζ1, 104 kDa), human; no cleavage is reported and the protein is detected by anti-TS; also called purified DGKζ; source: HEK293 cells, purified (Strep-Tactin XT beads, without detergents); not shown: Twin-Strep, N-terminal, kept
As to the kind of experiment: pull-down; purified GST-SMS1-CT or GST-SMSr-NT on glutathione-Sepharose beads, purified Twin-Strep-tagged DGKζ added for 2 h at 4 °C; 20 mM Tris-HCl pH 7.5, 150 mM NaCl, 1 mM EDTA, 0.1% Triton X-100; western blot with anti-GST and anti-TS. Particulars: both partners purified. A general note: A western blot detects proteins with antibodies after separation by electrophoresis.

T1 sequence (Q13574 whole entry): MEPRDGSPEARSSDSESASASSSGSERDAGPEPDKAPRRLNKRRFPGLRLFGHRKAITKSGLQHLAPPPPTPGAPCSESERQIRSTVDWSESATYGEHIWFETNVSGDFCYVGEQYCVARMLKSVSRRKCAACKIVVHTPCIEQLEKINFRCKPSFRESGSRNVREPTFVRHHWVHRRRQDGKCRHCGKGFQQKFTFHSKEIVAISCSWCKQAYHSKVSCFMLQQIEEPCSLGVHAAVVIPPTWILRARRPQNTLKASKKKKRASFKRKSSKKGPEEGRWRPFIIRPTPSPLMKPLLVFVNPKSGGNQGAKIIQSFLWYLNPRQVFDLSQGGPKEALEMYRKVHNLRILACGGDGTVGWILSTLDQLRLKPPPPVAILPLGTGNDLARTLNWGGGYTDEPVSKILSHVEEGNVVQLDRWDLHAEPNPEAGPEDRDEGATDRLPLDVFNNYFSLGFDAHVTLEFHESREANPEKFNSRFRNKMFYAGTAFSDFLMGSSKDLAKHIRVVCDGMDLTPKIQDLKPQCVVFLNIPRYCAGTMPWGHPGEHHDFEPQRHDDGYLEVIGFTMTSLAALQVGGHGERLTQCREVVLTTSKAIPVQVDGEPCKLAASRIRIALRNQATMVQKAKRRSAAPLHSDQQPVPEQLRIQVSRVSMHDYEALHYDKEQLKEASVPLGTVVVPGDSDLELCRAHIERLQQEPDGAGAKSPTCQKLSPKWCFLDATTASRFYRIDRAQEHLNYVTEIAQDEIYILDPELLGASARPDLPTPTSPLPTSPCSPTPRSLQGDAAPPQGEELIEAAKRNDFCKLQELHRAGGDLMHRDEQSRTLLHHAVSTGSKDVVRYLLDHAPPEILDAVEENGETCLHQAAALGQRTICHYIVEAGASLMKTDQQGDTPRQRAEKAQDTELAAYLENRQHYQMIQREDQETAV

B1: GST‐SMSr‐NT (domain or fragment, human, UniProt Q96LT4 1-151, looked up)
chain: MAGPNQLCIRRWTTKHVAVWLKDEGFFEYVDILCNKHRLDGITLLTLTEYDLRSPPLEIKVLGDIKRLMLSVRKLQKIHIDVLEEMGYNSDSPMGSMTPFISALQSTDWLCNGELSHDCDGPITDLNSDQYQYMNGKNKHSVRRLDPEYWK
notes: SMSr, N-terminal cytosolic region (contains SAMD); SMSr-NT is defined as aa 1–151; also called GST-fused SMSr‐NT; GST-tagged SMSr‐NT; source: bacterially expressed, purified (glutathione-Sepharose beads); not shown: GST, N-terminal, kept
Take B1: the binding result was “binds”.

B2: GST‐SMS1‐CT (domain or fragment, human, UniProt Q86VZ5 348-413, looked up)
chain: HTMANQQVLKEASQMNLLARVWWYRPFQYFEKNVQGIVPRSYHWPFPWPVVHLSRQVKYSRLVNDT
notes: SMS1, C-terminal cytosolic region; SMS1-CT is defined as aa 348–413; also called GST-fused SMS1‐CT; GST-tagged SMS1‐CT; source: bacterially expressed, purified (glutathione-Sepharose beads); not shown: GST, N-terminal, kept
For B2, the binding result was “binds”.
